From PMC3477848 (Biochemistry, 2012)
Like-named read-outs stand apart in the source and are kept apart here.

Key:
Experiment in all cases: fluorescence anisotropy
[1] = biological target: T1, Dpo1 exo- (SsoDpo1, B-family DNA polymerase) (Sulfolobus solfataricus, UniProt P26811 1-882, D231A;D318A)
T1 sequence: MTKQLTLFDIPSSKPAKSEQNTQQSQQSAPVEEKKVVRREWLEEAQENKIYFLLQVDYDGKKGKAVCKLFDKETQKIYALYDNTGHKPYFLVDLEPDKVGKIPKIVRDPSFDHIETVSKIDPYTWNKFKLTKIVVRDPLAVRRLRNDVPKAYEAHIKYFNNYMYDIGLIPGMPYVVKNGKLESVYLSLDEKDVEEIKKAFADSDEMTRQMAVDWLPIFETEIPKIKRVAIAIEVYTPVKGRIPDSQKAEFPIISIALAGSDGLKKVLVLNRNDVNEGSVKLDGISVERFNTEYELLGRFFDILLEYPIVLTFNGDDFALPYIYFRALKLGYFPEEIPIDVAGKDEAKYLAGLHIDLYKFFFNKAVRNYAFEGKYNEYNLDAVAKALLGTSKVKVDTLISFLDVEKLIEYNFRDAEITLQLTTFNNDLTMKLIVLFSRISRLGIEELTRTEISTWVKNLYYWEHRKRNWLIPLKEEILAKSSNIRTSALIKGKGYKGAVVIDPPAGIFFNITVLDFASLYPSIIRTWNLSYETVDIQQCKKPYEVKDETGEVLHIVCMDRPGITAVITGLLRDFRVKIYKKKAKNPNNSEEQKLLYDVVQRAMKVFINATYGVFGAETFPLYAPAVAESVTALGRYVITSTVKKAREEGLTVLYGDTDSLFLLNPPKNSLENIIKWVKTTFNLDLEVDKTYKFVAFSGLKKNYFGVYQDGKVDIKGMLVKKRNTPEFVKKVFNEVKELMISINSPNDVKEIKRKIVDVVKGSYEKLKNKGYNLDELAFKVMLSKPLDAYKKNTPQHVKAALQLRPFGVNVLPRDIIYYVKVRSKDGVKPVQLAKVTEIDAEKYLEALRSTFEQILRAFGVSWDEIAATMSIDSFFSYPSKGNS

[2] = biological target: T2, Dpo4 (SsoDpo4, Y-family DNA polymerase) (Sulfolobus solfataricus, UniProt Q97W02 1-352)
T2 sequence: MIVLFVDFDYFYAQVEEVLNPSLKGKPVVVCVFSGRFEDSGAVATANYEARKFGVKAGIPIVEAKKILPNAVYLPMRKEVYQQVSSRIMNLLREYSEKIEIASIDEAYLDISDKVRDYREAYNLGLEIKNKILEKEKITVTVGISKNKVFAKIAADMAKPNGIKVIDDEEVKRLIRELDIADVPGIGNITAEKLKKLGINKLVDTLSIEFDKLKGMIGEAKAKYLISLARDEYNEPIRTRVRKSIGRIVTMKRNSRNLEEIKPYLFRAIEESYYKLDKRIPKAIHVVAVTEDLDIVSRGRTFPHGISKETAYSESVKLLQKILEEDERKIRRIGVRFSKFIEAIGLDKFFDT

[3] = biological target: T1, Dpo1 exo- (SsoDpo1, B-family DNA …); remark: listed apart in the source
[4] = biological target: T1, Dpo1 exo- (SsoDpo1, B-family DNA …); remark: listed apart in the source
[5] = biological target: T1, Dpo1 exo- (SsoDpo1, B-family DNA …); remark: listed apart in the source
[6] = biological target: T2, Dpo4 (SsoDpo4, Y-family DNA polymerase); remark: listed apart in the source
[7] = biological target: T2, Dpo4 (SsoDpo4, Y-family DNA polymerase); remark: listed apart in the source

## TTTTTTTTTTCCCGGGCCGGCGTTTCGCCGGCCCGGG (structured_DNA) [37-nt hairpin primer-template, 5'-Cy3]
[1]
  Kd: 94 ± 1 nM
[2]
  Kd: 155 ± 65 nM
[3]
  Kd: 105 ± 3 nM
[4]
  Kd: 109 ± 16 nM
[5]
  Kd: 144 ± 15 nM
[6]
  Kd: 125 ± 51 nM
[7]
  Kd: 130 ± 4 nM
